Laboratory results published in patent publication US20110110945A1, “Immunoglobulin Fusion Proteins and Methods of Making” (TransTech Pharma, Inc., priority 2007, published 2011).
Entries after “also recorded” stand apart in the source; their conditions may differ.

Assays:
amphoterin = target: T1, amphoterin (Homo sapiens, UniProt P09429); experiment: In vitro ligand binding assay (ELISA), immobilized amphoterin; settings: ligand 5 micrograms per well; dilutions of initial fusion protein solution; FIG. 7
T1 sequence (P09429 1-215): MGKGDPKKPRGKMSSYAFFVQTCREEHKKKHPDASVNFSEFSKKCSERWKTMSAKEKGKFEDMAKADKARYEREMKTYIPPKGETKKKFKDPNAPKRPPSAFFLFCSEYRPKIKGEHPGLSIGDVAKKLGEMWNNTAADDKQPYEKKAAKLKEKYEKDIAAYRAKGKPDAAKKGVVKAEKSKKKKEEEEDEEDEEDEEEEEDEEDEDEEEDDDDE
Method: For example, the fusion protein may be used in a binding assay to identify potential ligands that bind to the non-immunoglobulin protein. In one example embodiment of such a binding assay, a known ligand may coated onto a solid substrate (e.g., Maxisorb plates) at a biologically relevant concentration (e.g., about 5 micrograms per well), where each well contains a total volume of about 100 microliters (μL). The plates may be incubated at 4° C. overnight to allow the ligand to bind to the substrate. Alternatively, shorter incubation periods at higher temperature (e.g., room temperature) may be used. After a period of time to allow for the ligand to bind to the substrate, the assay wells may be aspirated and a blocking buffer (e.g., 1% BSA in 50 mM imidizole buffer, pH 7.2) may be added to block nonspecific binding. […] The fusion protein bound to the immobilized ligand may be detected in a variety of ways. […] The bound complex may be detected by adding a substrate for the secondary antibody complex, e.g., the alkaline phosphatase substrate, para-nitrophenylphosphate (PNPP), and measuring conversion of PNPP to para-nitrophenol (PNP) as an increase in absorbance at 405 nm. […] In the absence of ligand (i.e., coating with only BSA) there was no increase in absorbance. The binding assay of the present invention may be used to quantify ligand binding. […]

[1] = tested on: S100b/RAGE-induced production of TNF-α in THP-1 cells; experiment: Inhibition of S100b/RAGE-induced production of TNF-α in THP-1 cells; type: cell-based; settings: 10 μg protein, FIG. 10
Source text: One embodiment of a use of a RAGE fusion protein of the present invention to modulate expression of the cellular effector TNF-α is shown in FIG. 10. THP-1 myeloid cells may be cultured in RPMI-1640 media supplemented with 10% FBS and induced to secrete TNF-α via stimulation of RAGE with S100b. When such stimulation occurs in the presence of a RAGE fusion protein of the invention, induction of TNF-α by S100b binding to RAGE may be inhibited.
Previous work has shown that the myeloid THP-1 cells may secrete TNF-α in response to RAGE ligands. In this assay, THP-1 cells were cultured in RPMI-1640 media supplemented with 10% FBS using a protocol provided by ATCC. […] The amount of TNF-α secreted by the THP-1 cells was measured 24 hours after the addition of the proteins to the cell culture using a commercially available ELISA kit for TNF-α (R&D Systems, Minneapolis, Minn.).

[2] = Pharmacokinetic profile of TTP-4000 after IV injection; type: in vivo, monkeys; settings: single IV bolus 5 mg/kg; plasma; once TTP-4000 has saturated its ligands; 2 animals; FIG. 11
Method: Following collection, the tubes were placed on wet ice (maximum 30 minutes) until centrifugation under refrigeration (at 2 to 8° C.) at 1500×g for 15 minutes. Each harvested plasma sample was then stored frozen (−70° C.±10° C.) until assayed for RAGE polypeptide using an ELISA at various time-points following the injection, as described in Example 6.
In FIG. 11 each curve represents a different animal under the same experimental conditions.
Initially, 50 uL of the RAGE specific monoclonal antibody 1HB1011 at a concentration of 10 ug/mL in 1×PBS pH 7.3 is coated on plates via overnight incubation. When ready for use, plates are washed three times with 300 uL of 1× Imidazole-Tween wash buffer and blocked with 1% BSA. […] The samples are allowed to incubate at room temperature for one hour. After incubation, the plates are plates are washed three times. A Goat Anti-human IgG1 1 (Sigma A3312) AP conjugate in 1×PBS with 1% BSA is added and allowed to incubate at room temperature for 1 hour. The plates are washed three times. Color was elucidated with paranitrophenylphosphate.

[3] = tested on: male C57BL/6 mice, cerebral ischemia/reperfusion; experiment: Animal model of stroke (ischemia and reperfusion, infarct volume); type: in vivo; settings: mouse stroke model
Method: In this model, the middle carotid artery of a mouse is ligated and then reperfused to form an infarct.
In this model, the middle carotid artery of a mouse was ligated for 1 hour followed by 23 hours of reperfusion at which point the mice were sacrificed and the area of the infarct in the brain was assessed.
Mice were injected intraperitoneally, 1 hour after the initiation of ischemia. Mice were subjected to one hour of cerebral ischemia followed by 24 hours of reperfusion. To induce ischemia, each mouse was anesthetized and body temperature was maintained at 36-37° C. by external warming. The left common carotid artery (CCA) was exposed through a midline incision in the neck. […] After the nylon suture had been in place for 1 hour, the animal was re-anesthetized, rectal temperature was recorded and the suture was removed and the incision closed.
Infarct volume was determined by anesthetizing the animals with an intraperitoneal injection of sodium pentobarbital (50 mg/kg) and then removing the brains. […] The infarct area in each section was determined with a computer-assisted image analysis system, consisting of a Power Macintosh computer equipped with a Quick Capture frame grabber card, Hitachi CCD camera mounted on a camera stand. […] The images were captured and the total area of infarct was determined over the sections. […] The results are expressed as the mean±standard deviation (SD). […]

Fc receptor [4] = tested on: Fc receptor
Method: (§1) Fc receptor activation was measured by measuring TNF-α secretion from THP-1 cells that express the Fc receptor. […] Fc stimulation results in TNF-α secretion. The amount of TNF-α was measured by an Enzyme Linked Immunoabsorbent Assay (ELISA).
(§2) Thus, in this assay, the myeloid cell line, THP-1 (ATTC #TIB-202) was maintained in RPMI-1640 media supplemented with 10% fetal bovine serum per ATCC instructions. […] The amount of TNF-alpha secreted by the THP-1 cells was measured in supernatants collected from 24 hours cultures of cells in the treated wells using a commercially available TNF ELISA kit (R&D Systems, Minneapolis, Minn. #DTA00C) per instructions.

Fc receptor [5] = experiment: Fc receptor activation: TNF-α secretion from THP-1 cells; settings: well precoated with 10 ug/well heat aggregated protein, 24 hours, FIG. 12
Method: as §1, §2

B1: TTP-4000: RAGE fusion protein: V and C1 domains of human RAGE (amino acids 1-251) linked to hinge-less CH2 and CH3 of human IgG1; SEQ ID NO: 16/18 (protein)
chain 1: MAAGTAVGAWVLVLSLWGAVVGAQNITARIGEPLVLKCKGAPKKPPQRLEWKLNTGRTEAWKVLSPQGGGPWDSVARVLPNGSLFLPAVGIQDEGIFRCQAMNRNGKETKSNYRVRVYQIPGKPEIVDSASELTAGVPNKVGTCVSEGSYPAGTLSWHLDGKPLVPNEKGVSVKEQTRRHPETGLFTLQSELMVTPARGGDPRPTFSCSFSPGLPRHRALRTAPIQPRVWEPVPLEEVQLVVEPEGGAVAPPSVFLFPPKPKDTLMISRTPEVTCVVVDVSHEDPEVKFNWYVDGVEVHNAKTKPREEQYNSTYRVVSVLTVLHQDWLNGKEYKCKVSNKALPAPIEKTISKAKGQPREPQVYTLPPSRDELTKNQVSLTCLVKGFYPSDIAVEWESNGQPENNYKTTPPVLDSDGSFFLYSKLTVDKSRWQQGNVFSCSVMHEALHNHYTQKSLSLSPGK
chain 2: ENITARIGEPLVLKCKGAPKKPPQRLEWKLNTGRTEAWKVLSPQGGGPWDSVARVLPNGSLFLPAVGIQDEGIFRCQAMNRNGKETKSNYRVRVYQIPGKPEIVDSASELTAGVPNKVGTCVSEGSYPAGTLSWHLDGKPLVPNEKGVSVKEQTRRHPETGLFTLQSELMVTPARGGDPRPTFSCSFSPGLPRHRALRTAPIQPRVWEPVPLEEVQLVVEPEGGAVAPPSVFLFPPKPKDTLMISRTPEVTCVVVDVSHEDPEVKFNWYVDGVEVHNAKTKPREEQYNSTYRVVSVLTVLHQDWLNGKEYKCKVSNKALPAPIEKTISKAKGQPREPQVYTLPPSRDELTKNQVSLTCLVKGFYPSDIAVEWESNGQPENNYKTTPPVLDSDGSFFLYSKLTVDKSRWQQGNVFSCSVMHEALHNHYTQKSLSLSPGK
modifications: synthetic four domain RAGE-Fc IgG fusion protein; synthetic four domain RAGE-Fc IgG fusion protein having signal sequence removed
- binding to immobilized amphoterin (increase in absorbance at 405 nm) (amphoterin): able to bind; also recorded: specifically interact
- reduction of S100b induction of TNF-α ([1]; S100b 0.1 mg/ml FAC, TNF-α ELISA at 24 hours): ~70%
- S100b induction of TNF-α, result in words ([1]; S100b 0.1 mg/ml): at least as effective
- terminal half-life [2]: greater than 300 hours
- reduction in infarct volume / area of infarct compared to sRAGE, in words [3]: significantly greater reduction in infarct volume; also recorded: more efficacious than sRAGE
- stimulation of TNF-α release from cells, in words (Fc receptor [4]): does not stimulate TNF-α release
- TNF generated (Fc receptor activation) (Fc receptor [5]): less than 2 ng/well
